B1: HHH_rd2_0155 (parent)
chain: PPDDERKKAEKAARSGNEEKAREILERLGYSEDEARELAKRLR

Variants of B1 are the subject of this data set. The data set can be described thus: folding stability dG (cDNA display proteolysis); higher = more stable. The settings on record: PBS, room temperature.
LPDDERKKAEKAARSGNEEKAREILERLGYSEDEARELAKRLR [P1L]: the “folding stability dG” value amounted to 2.24 kcal/mol.

As for YPDDERKKAEKAARSGNEEKAREILERLGYSEDEARELAKRLR [P1Y], the “folding stability dG” value came to 2.24 kcal/mol.

As to NPDDERKKAEKAARSGNEEKAREILERLGYSEDEARELAKRLR [P1N], the “folding stability dG” value turned out to be 2.41 kcal/mol.

In the case of WPDDERKKAEKAARSGNEEKAREILERLGYSEDEARELAKRLR [P1W], the “folding stability dG” value came out at 2.33 kcal/mol.

For the variant GPDDERKKAEKAARSGNEEKAREILERLGYSEDEARELAKRLR [P1G], the “folding stability dG” value came out at 2.26 kcal/mol.

For HPDDERKKAEKAARSGNEEKAREILERLGYSEDEARELAKRLR [P1H], the “folding stability dG” value is 2.29 kcal/mol.

Turning to TPDDERKKAEKAARSGNEEKAREILERLGYSEDEARELAKRLR [P1T], the “folding stability dG” value worked out at 2.36 kcal/mol.

IPDDERKKAEKAARSGNEEKAREILERLGYSEDEARELAKRLR [P1I]: the “folding stability dG” value was 2.12 kcal/mol.

Take MPDDERKKAEKAARSGNEEKAREILERLGYSEDEARELAKRLR [P1M]: the “folding stability dG” value was 2.17 kcal/mol.

PWDDERKKAEKAARSGNEEKAREILERLGYSEDEARELAKRLR [P2W]: the “folding stability dG” value is 2.29 kcal/mol.

With PEDDERKKAEKAARSGNEEKAREILERLGYSEDEARELAKRLR [P2E], the “folding stability dG” value is 2.24 kcal/mol.

Turning to PRDDERKKAEKAARSGNEEKAREILERLGYSEDEARELAKRLR [P2R], the “folding stability dG” value came to 2.17 kcal/mol.

As for PLDDERKKAEKAARSGNEEKAREILERLGYSEDEARELAKRLR [P2L], the “folding stability dG” value was determined as 2.14 kcal/mol.

For the variant PADDERKKAEKAARSGNEEKAREILERLGYSEDEARELAKRLR [P2A], the “folding stability dG” value came out at 2.18 kcal/mol.

Turning to PKDDERKKAEKAARSGNEEKAREILERLGYSEDEARELAKRLR [P2K], the “folding stability dG” value turned out to be 2.11 kcal/mol.

For the variant PFDDERKKAEKAARSGNEEKAREILERLGYSEDEARELAKRLR [P2F], the “folding stability dG” value amounted to 2.35 kcal/mol.

Consider PIDDERKKAEKAARSGNEEKAREILERLGYSEDEARELAKRLR [P2I], for which the “folding stability dG” value came out at 2.25 kcal/mol.

Turning to PHDDERKKAEKAARSGNEEKAREILERLGYSEDEARELAKRLR [P2H], the “folding stability dG” value was 2.24 kcal/mol.

Take PCDDERKKAEKAARSGNEEKAREILERLGYSEDEARELAKRLR [P2C]: the “folding stability dG” value came to 2.29 kcal/mol.

For the variant PNDDERKKAEKAARSGNEEKAREILERLGYSEDEARELAKRLR [P2N], the “folding stability dG” value came out at 2.15 kcal/mol.

In the case of PQDDERKKAEKAARSGNEEKAREILERLGYSEDEARELAKRLR [P2Q], the “folding stability dG” value is 2.15 kcal/mol.

Consider PDDDERKKAEKAARSGNEEKAREILERLGYSEDEARELAKRLR [P2D], for which the “folding stability dG” value came out at 2.21 kcal/mol.

As to PYDDERKKAEKAARSGNEEKAREILERLGYSEDEARELAKRLR [P2Y], the “folding stability dG” value was determined as 2.29 kcal/mol.

Turning to PVDDERKKAEKAARSGNEEKAREILERLGYSEDEARELAKRLR [P2V], the “folding stability dG” value turned out to be 2.2 kcal/mol.

Turning to PSDDERKKAEKAARSGNEEKAREILERLGYSEDEARELAKRLR [P2S], the “folding stability dG” value was 1.97 kcal/mol.

As to PGDDERKKAEKAARSGNEEKAREILERLGYSEDEARELAKRLR [P2G], the “folding stability dG” value came to 2.04 kcal/mol.

With PTDDERKKAEKAARSGNEEKAREILERLGYSEDEARELAKRLR [P2T], the “folding stability dG” value turned out to be 2.02 kcal/mol.

Take PMDDERKKAEKAARSGNEEKAREILERLGYSEDEARELAKRLR [P2M]: the “folding stability dG” value is 2.23 kcal/mol.

Regarding PPDDLRKKAEKAARSGNEEKAREILERLGYSEDEARELAKRLR [E5L], the “folding stability dG” value is 2.65 kcal/mol.

In the case of PPDDGRKKAEKAARSGNEEKAREILERLGYSEDEARELAKRLR [E5G], the “folding stability dG” value turned out to be 1.65 kcal/mol.

Turning to PPDDPRKKAEKAARSGNEEKAREILERLGYSEDEARELAKRLR [E5P], the “folding stability dG” value worked out at 1.8 kcal/mol.

In the case of PPDDIRKKAEKAARSGNEEKAREILERLGYSEDEARELAKRLR [E5I], the “folding stability dG” value worked out at 1.51 kcal/mol.

On to PPDDRRKKAEKAARSGNEEKAREILERLGYSEDEARELAKRLR [E5R], for which the “folding stability dG” value is 1.66 kcal/mol.

For the variant PPDDTRKKAEKAARSGNEEKAREILERLGYSEDEARELAKRLR [E5T], the “folding stability dG” value was 1.73 kcal/mol.

In the case of PPDDSRKKAEKAARSGNEEKAREILERLGYSEDEARELAKRLR [E5S], the “folding stability dG” value was determined as 1.8 kcal/mol.

For the variant PPDDQRKKAEKAARSGNEEKAREILERLGYSEDEARELAKRLR [E5Q], the “folding stability dG” value was determined as 1.91 kcal/mol.

For PPDDARKKAEKAARSGNEEKAREILERLGYSEDEARELAKRLR [E5A], the “folding stability dG” value is 1.86 kcal/mol.

Consider PPDDVRKKAEKAARSGNEEKAREILERLGYSEDEARELAKRLR [E5V], for which the “folding stability dG” value was 1.61 kcal/mol.

For the variant PPDDNRKKAEKAARSGNEEKAREILERLGYSEDEARELAKRLR [E5N], the “folding stability dG” value worked out at 1.5 kcal/mol.

Regarding PPDDWRKKAEKAARSGNEEKAREILERLGYSEDEARELAKRLR [E5W], the “folding stability dG” value worked out at 2.35 kcal/mol.

For PPDDHRKKAEKAARSGNEEKAREILERLGYSEDEARELAKRLR [E5H], the “folding stability dG” value was 1.5 kcal/mol.

For PPDDKRKKAEKAARSGNEEKAREILERLGYSEDEARELAKRLR [E5K], the “folding stability dG” value was 1.45 kcal/mol.

Regarding PPDDMRKKAEKAARSGNEEKAREILERLGYSEDEARELAKRLR [E5M], the “folding stability dG” value came out at 2.33 kcal/mol.

For PPDDFRKKAEKAARSGNEEKAREILERLGYSEDEARELAKRLR [E5F], the “folding stability dG” value stood at 1.88 kcal/mol.

On to PPDDDRKKAEKAARSGNEEKAREILERLGYSEDEARELAKRLR [E5D], for which the “folding stability dG” value amounted to 2.01 kcal/mol.

As for PPNDERKKAEKAARSGNEEKAREILERLGYSEDEARELAKRLR [D3N], the “folding stability dG” value turned out to be 1.98 kcal/mol.

With PPADERKKAEKAARSGNEEKAREILERLGYSEDEARELAKRLR [D3A], the “folding stability dG” value turned out to be 1.91 kcal/mol.

PPYDERKKAEKAARSGNEEKAREILERLGYSEDEARELAKRLR [D3Y]: the “folding stability dG” value came out at 1.93 kcal/mol.

PPCDERKKAEKAARSGNEEKAREILERLGYSEDEARELAKRLR [D3C]: the “folding stability dG” value was found to be 2.41 kcal/mol.

For PPKDERKKAEKAARSGNEEKAREILERLGYSEDEARELAKRLR [D3K], the “folding stability dG” value came out at 1.73 kcal/mol.

In the case of PPEDERKKAEKAARSGNEEKAREILERLGYSEDEARELAKRLR [D3E], the “folding stability dG” value was 2.14 kcal/mol.

On to PPTDERKKAEKAARSGNEEKAREILERLGYSEDEARELAKRLR [D3T], for which the “folding stability dG” value came out at 1.95 kcal/mol.

Consider PPMDERKKAEKAARSGNEEKAREILERLGYSEDEARELAKRLR [D3M], for which the “folding stability dG” value was determined as 2.02 kcal/mol.

Take PPVDERKKAEKAARSGNEEKAREILERLGYSEDEARELAKRLR [D3V]: the “folding stability dG” value is 1.85 kcal/mol.

For PPWDERKKAEKAARSGNEEKAREILERLGYSEDEARELAKRLR [D3W], the “folding stability dG” value is 2.1 kcal/mol.

With PPPDERKKAEKAARSGNEEKAREILERLGYSEDEARELAKRLR [D3P], the “folding stability dG” value came to 1.89 kcal/mol.

Regarding PPQDERKKAEKAARSGNEEKAREILERLGYSEDEARELAKRLR [D3Q], the “folding stability dG” value was determined as 1.92 kcal/mol.

Turning to PPLDERKKAEKAARSGNEEKAREILERLGYSEDEARELAKRLR [D3L], the “folding stability dG” value came out at 2.06 kcal/mol.

For the variant PPSDERKKAEKAARSGNEEKAREILERLGYSEDEARELAKRLR [D3S], the “folding stability dG” value is 2.08 kcal/mol.

Turning to PPFDERKKAEKAARSGNEEKAREILERLGYSEDEARELAKRLR [D3F], the “folding stability dG” value came to 1.79 kcal/mol.

Regarding PPRDERKKAEKAARSGNEEKAREILERLGYSEDEARELAKRLR [D3R], the “folding stability dG” value worked out at 1.75 kcal/mol.

For PPGDERKKAEKAARSGNEEKAREILERLGYSEDEARELAKRLR [D3G], the “folding stability dG” value was 1.98 kcal/mol.

As for PPHDERKKAEKAARSGNEEKAREILERLGYSEDEARELAKRLR [D3H], the “folding stability dG” value was 1.9 kcal/mol.

For the variant PPIDERKKAEKAARSGNEEKAREILERLGYSEDEARELAKRLR [D3I], the “folding stability dG” value stood at 1.95 kcal/mol.

Take PPDYERKKAEKAARSGNEEKAREILERLGYSEDEARELAKRLR [D4Y]: the “folding stability dG” value was found to be 1.93 kcal/mol.

Regarding PPDKERKKAEKAARSGNEEKAREILERLGYSEDEARELAKRLR [D4K], the “folding stability dG” value was 1.95 kcal/mol.

For PPDCERKKAEKAARSGNEEKAREILERLGYSEDEARELAKRLR [D4C], the “folding stability dG” value was 2.15 kcal/mol.

With PPDVERKKAEKAARSGNEEKAREILERLGYSEDEARELAKRLR [D4V], the “folding stability dG” value is 2.06 kcal/mol.

Regarding PPDNERKKAEKAARSGNEEKAREILERLGYSEDEARELAKRLR [D4N], the “folding stability dG” value came to 1.9 kcal/mol.

With PPDFERKKAEKAARSGNEEKAREILERLGYSEDEARELAKRLR [D4F], the “folding stability dG” value was 2.02 kcal/mol.

Consider PPDAERKKAEKAARSGNEEKAREILERLGYSEDEARELAKRLR [D4A], for which the “folding stability dG” value is 2.09 kcal/mol.

As for PPDHERKKAEKAARSGNEEKAREILERLGYSEDEARELAKRLR [D4H], the “folding stability dG” value worked out at 1.88 kcal/mol.

On to PPDTERKKAEKAARSGNEEKAREILERLGYSEDEARELAKRLR [D4T], for which the “folding stability dG” value is 2.17 kcal/mol.

As for PPDPERKKAEKAARSGNEEKAREILERLGYSEDEARELAKRLR [D4P], the “folding stability dG” value came out at 1.88 kcal/mol.

Regarding PPDMERKKAEKAARSGNEEKAREILERLGYSEDEARELAKRLR [D4M], the “folding stability dG” value came out at 1.97 kcal/mol.

For the variant PPDRERKKAEKAARSGNEEKAREILERLGYSEDEARELAKRLR [D4R], the “folding stability dG” value was found to be 1.98 kcal/mol.

As to PPDQERKKAEKAARSGNEEKAREILERLGYSEDEARELAKRLR [D4Q], the “folding stability dG” value was 2.04 kcal/mol.

With PPDSERKKAEKAARSGNEEKAREILERLGYSEDEARELAKRLR [D4S], the “folding stability dG” value was found to be 2.16 kcal/mol.

In the case of PPDIERKKAEKAARSGNEEKAREILERLGYSEDEARELAKRLR [D4I], the “folding stability dG” value was 2.17 kcal/mol.

Regarding PPDGERKKAEKAARSGNEEKAREILERLGYSEDEARELAKRLR [D4G], the “folding stability dG” value is 1.75 kcal/mol.

PPDEERKKAEKAARSGNEEKAREILERLGYSEDEARELAKRLR [D4E]: the “folding stability dG” value was determined as 2.26 kcal/mol.

As to PPDLERKKAEKAARSGNEEKAREILERLGYSEDEARELAKRLR [D4L], the “folding stability dG” value worked out at 2.22 kcal/mol.

Consider PPDWERKKAEKAARSGNEEKAREILERLGYSEDEARELAKRLR [D4W], for which the “folding stability dG” value was found to be 2.09 kcal/mol.
